The source of these data is publication PMC5146981, “MMP-13 is constitutively produced in human chondrocytes and co-endocytosed with ADAMTS-5 and TIMP-3 by the endocytic receptor LRP1” (Matrix Biology, 2016).

In test [1] the target is LRP1 ligand-binding cluster IV (human) (UniProt Q07954). Briefly: ELISA; purified LRP1 fragments (clusters I to IV) coated on microtiter plates; proMMP-13(E223A) or Hpx_(MMP-13) 0-200 nM; detected with anti-MMP-13 181-14G11; extrapolated apparent KD (K_D,app).
For test [2], the target named is LRP1 ligand-binding cluster I (human) (UniProt Q07954). Described as above.
Test [3] deals with purified human full-length LRP1 (low-density lipoprotein receptor-related protein 1) (human). Briefly: ELISA; full-length LRP1 coated; proMMP-13(E223A) 0-40 nM in the absence or presence of 50 nM ADAMTS-5, 250 nM ADAMTS-4 or 50 nM TIMP-3 plus 50 μM CT1746; apparent KD (K_D,app). On the technique in general: ELISA stands for enzyme-linked immunosorbent assay.
The target in test [4] is LRP1 ligand-binding cluster III (human, UniProt Q07954 2522-2940). Briefly: ELISA; purified LRP1 fragments (clusters I to IV) coated on microtiter plates; proMMP-13(E223A) or Hpx_(MMP-13) 0-200 nM; detected with anti-MMP-13 181-14G11; extrapolated apparent KD (K_D,app).
Test [5] concerns the target T1, LRP1 ligand-binding cluster II (human, UniProt Q07954 852-1182).
T1 construct: also called soluble LRP1 cluster II
T1 sequence (looked up): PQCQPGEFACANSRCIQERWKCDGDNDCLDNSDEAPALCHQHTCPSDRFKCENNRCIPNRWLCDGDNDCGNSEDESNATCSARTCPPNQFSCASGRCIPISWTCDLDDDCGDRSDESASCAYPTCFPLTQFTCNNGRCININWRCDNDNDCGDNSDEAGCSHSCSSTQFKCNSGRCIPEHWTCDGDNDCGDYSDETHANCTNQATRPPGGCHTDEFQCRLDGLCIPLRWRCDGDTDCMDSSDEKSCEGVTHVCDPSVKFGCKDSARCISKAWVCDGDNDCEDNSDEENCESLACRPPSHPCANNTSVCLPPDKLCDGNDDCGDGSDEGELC
Described as above.

The target of test [6] is purified human full-length LRP1 (low-density lipoprotein receptor-related protein 1) (human). Briefly: ELISA; solid-phase binding; full-length LRP1 (5 nM in TNC) coated on microtiter plates overnight at 4 °C, blocked with 3% BSA; MMPs 0-50 nM for 3 h at room temperature; detected with anti-MMP antibodies and HRP secondary antibody; apparent KD (K_D,app).
Test [7] shares this target.
Test [8] addresses purified human full-length LRP1 (low-density lipoprotein receptor-related protein 1). Briefly: solid-phase binding assay (ELISA) on immobilized LRP1. Conditions: point at 50 nM MMP, read off a plot.
For test [9] the target is unchanged. Briefly: competition solid-phase binding assay (ELISA) on immobilized LRP1. To be noted: 200 nM proMMP-1(E200A) as competitor of 6 nM proMMP-13(E223A); detection with anti-FLAG M2 antibody; read off a plot.

Where two headings read alike, the source gives them in different places.

Sequence of LRP1 ligand-binding cluster I (human) (Q07954 20-4544): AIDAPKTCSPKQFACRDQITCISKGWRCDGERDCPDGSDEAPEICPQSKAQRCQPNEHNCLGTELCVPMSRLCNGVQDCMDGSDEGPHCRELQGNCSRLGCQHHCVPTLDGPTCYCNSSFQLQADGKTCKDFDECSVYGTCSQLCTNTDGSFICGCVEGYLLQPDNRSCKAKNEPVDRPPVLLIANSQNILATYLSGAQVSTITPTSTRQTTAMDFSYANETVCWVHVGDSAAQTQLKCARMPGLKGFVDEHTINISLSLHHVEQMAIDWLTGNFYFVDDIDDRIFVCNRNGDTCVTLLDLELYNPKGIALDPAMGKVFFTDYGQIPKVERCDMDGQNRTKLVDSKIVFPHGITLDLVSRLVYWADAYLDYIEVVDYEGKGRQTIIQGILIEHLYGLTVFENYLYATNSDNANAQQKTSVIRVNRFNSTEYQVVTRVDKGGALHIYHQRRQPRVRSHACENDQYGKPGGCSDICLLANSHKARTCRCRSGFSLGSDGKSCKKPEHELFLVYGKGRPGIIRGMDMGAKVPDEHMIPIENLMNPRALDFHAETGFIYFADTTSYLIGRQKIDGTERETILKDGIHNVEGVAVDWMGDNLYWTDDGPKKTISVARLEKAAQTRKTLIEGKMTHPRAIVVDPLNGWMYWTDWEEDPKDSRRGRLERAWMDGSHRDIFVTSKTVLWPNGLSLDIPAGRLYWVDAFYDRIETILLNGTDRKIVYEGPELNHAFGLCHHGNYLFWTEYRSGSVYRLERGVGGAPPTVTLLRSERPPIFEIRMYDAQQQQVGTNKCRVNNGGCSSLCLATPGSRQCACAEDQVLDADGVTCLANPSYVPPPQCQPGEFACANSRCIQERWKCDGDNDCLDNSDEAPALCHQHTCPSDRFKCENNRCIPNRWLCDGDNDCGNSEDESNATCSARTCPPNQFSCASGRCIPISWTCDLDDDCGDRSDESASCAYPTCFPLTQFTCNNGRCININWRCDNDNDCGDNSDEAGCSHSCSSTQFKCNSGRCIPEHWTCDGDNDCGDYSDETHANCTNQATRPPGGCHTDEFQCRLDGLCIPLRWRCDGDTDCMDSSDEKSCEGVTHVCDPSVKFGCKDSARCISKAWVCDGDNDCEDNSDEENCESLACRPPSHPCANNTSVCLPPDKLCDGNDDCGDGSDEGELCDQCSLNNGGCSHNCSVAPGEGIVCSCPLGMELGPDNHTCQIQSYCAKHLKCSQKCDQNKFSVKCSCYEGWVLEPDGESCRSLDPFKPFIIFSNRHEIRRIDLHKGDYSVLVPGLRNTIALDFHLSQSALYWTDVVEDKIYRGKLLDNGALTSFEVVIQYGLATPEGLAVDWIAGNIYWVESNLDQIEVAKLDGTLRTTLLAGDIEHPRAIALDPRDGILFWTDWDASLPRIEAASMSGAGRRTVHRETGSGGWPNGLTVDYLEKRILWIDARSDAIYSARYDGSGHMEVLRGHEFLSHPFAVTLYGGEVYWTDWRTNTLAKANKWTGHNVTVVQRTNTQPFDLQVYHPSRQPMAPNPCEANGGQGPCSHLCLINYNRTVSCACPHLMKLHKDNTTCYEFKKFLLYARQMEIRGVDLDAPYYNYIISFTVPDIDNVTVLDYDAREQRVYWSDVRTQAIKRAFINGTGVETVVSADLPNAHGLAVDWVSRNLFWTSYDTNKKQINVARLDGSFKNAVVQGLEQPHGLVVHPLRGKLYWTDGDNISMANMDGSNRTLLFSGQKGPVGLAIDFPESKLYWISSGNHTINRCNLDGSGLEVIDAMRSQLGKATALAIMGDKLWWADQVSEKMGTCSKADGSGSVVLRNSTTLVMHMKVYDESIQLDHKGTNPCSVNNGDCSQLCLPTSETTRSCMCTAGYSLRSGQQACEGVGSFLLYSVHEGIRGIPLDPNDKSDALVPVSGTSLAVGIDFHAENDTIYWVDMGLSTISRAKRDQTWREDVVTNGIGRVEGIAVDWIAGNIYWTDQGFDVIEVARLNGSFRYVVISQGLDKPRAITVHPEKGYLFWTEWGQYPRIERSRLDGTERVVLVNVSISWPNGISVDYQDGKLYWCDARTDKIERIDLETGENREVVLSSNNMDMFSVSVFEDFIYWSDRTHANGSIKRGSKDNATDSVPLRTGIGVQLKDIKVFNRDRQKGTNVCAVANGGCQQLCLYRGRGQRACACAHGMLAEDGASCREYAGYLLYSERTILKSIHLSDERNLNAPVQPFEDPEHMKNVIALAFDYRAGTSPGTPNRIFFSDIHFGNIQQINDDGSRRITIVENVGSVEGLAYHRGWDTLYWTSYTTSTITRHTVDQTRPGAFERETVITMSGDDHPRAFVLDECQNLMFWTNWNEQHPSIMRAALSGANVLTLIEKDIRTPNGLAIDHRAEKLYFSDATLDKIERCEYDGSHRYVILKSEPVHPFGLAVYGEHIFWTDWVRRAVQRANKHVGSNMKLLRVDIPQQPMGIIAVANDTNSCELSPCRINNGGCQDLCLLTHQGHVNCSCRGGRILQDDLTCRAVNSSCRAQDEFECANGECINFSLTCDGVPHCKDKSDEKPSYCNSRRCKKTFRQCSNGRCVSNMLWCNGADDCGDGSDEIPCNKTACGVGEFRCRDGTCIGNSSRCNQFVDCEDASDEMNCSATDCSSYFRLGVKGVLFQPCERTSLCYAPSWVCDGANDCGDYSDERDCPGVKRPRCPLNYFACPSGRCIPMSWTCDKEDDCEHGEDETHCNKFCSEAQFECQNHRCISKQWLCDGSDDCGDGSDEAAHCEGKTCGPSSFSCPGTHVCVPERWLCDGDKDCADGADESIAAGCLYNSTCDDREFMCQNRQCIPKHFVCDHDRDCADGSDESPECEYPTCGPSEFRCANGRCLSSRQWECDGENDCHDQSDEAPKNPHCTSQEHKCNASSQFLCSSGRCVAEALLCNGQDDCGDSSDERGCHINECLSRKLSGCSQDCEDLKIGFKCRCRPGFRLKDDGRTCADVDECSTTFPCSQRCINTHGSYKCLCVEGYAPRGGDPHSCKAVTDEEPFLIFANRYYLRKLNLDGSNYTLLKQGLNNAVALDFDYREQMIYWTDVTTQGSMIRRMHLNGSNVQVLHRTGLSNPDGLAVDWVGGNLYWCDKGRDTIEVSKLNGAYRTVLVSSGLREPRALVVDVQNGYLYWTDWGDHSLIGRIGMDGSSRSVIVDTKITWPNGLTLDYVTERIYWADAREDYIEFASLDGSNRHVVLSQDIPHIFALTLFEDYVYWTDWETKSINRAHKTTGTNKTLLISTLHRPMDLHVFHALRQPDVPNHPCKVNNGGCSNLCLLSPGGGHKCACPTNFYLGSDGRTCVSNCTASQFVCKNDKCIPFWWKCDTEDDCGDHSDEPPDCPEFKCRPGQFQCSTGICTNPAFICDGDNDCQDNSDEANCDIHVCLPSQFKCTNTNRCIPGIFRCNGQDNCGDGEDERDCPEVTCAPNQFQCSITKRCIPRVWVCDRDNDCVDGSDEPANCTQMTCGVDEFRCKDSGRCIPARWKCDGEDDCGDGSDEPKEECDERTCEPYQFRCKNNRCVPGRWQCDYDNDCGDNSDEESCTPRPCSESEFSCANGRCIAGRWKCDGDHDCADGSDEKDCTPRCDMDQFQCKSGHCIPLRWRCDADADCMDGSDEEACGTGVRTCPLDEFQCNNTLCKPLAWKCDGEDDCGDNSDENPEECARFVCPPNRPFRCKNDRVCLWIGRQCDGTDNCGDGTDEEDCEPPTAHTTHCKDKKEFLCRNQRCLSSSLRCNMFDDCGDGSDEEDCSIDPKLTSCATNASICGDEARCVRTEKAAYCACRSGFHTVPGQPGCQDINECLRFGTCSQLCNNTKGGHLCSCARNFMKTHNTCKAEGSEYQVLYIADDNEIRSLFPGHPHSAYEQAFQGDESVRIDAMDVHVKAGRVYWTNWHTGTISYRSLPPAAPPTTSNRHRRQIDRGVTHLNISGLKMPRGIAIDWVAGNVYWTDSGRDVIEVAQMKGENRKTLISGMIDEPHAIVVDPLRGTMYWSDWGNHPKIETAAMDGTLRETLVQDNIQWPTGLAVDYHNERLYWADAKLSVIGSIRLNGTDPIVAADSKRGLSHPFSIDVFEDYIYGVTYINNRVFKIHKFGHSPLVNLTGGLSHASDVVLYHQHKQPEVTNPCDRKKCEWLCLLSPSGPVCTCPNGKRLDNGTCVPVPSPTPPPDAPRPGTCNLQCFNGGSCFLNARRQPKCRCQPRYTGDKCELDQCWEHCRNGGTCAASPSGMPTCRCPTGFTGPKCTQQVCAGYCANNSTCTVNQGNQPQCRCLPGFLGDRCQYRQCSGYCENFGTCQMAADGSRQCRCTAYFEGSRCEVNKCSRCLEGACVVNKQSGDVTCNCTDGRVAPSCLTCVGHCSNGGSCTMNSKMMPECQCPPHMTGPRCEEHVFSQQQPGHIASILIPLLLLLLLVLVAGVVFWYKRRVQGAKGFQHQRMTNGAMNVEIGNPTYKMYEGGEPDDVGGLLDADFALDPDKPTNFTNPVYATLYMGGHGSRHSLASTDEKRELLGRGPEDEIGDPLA
Sequence of LRP1 ligand-binding cluster IV (human) (Q07954 20-4544): as above
Sequence of LRP1 ligand-binding cluster III (Q07954 2522-2940): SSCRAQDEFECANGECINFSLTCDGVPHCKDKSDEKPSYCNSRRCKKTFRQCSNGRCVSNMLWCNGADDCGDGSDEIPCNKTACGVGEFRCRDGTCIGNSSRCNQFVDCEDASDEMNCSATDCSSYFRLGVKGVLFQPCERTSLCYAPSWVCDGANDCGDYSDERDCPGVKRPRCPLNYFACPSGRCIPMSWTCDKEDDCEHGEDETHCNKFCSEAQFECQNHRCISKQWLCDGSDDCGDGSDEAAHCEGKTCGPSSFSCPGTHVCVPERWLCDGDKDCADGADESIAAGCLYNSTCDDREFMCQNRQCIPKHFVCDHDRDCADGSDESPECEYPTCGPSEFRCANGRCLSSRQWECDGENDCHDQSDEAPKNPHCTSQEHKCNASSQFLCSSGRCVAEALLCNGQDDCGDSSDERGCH

With “proMMP-13(E223A) (from UniProt P45452 20-471) (enzyme)”, the Kd in test [1] was over 100 nM; in test [2] it was over 200 nM; in [4], 24 nM; in test [5], 17 nM; in test [6] it was 6 nM. Also, the K D,app in the presence of 50 nM ADAMTS-5 in test [3] was found to be 5.2 nM. In test [3], the K D,app in the presence of 50 nM TIMP-3 amounted to 8.2 nM. For the same molecule, the K D,app in the presence of 250 nM ADAMTS-4 in test [3] was determined as 5.6 nM.

For “proMMP-13(WT), MMP-13 with a FLAG tag between the signal and propeptide (enzyme)”, the proMMP-13 (10 nM) found in the cell lysate after 1 h with human chondrocytes at 4 °C (surface binding); abolished in the presence of 500 nM RAP in [7] worked out at 25%. Besides, the Kd in test [6] was determined as 5.9 nM.

For the molecule “proMMP-1-1-13(E200A) (MMP-1_(1-258)-MMP-13_(264-451)) (enzyme)”, the Kd in [6] was 5.1 nM.

With “proMMP-13(WT), MMP-13 with a FLAG tag between the signal and propeptide”, the clearance of 10 nM exogenous proMMP-13 from the medium of human chondrocytes, 0-4 h, Western blot; inhibited by 500 nM RAP and in LRP1-silenced cells in [7] amounted to 70 min.

As for proMMP-1 E200A, the response (absorbance at 450 nm) in test [8] (detection with anti-MMP-1 (SB12e) antibody) came out at 0.13. Also, the other: ProMMP-13 bound to LRP1 (% of amount bound without competitor) in [9] came out at 100%.

As for “MMP-13(E223A), activated form (from UniProt P45452 104-471) (enzyme)”, the Kd in test [6] is 3.8 nM.

proMMP-3 E202A returned a response (absorbance at 450 nm) in test [8] (detection with anti-MMP-3 (4B7.3) antibody) of 0.25.

B1: hemopexin domain of MMP-13 (Hpx_(MMP-13)) (domain or fragment, human, UniProt P45452 284-471, looked up)
chain: CDPSLSLDAITSLRGETMIFKDRFFWRLHPQQVDAELFLTKSFWPELPNRIDAAYEHPSHDLIFIFRGRKFWALNGYDILEGYPKKISELGLPKEVKKISAAVHFEDTGKTLLFSGNQVWRYDDTNHIMDKDYPRLIEEDFPGIGDKVDAVYEKNGYIYFFNGPIQFEYSIWSNRIVRVMPANSILWC
notes: MMP-13 (collagenase 3), human, hemopexin domain released by autolysis; also called Hpx domain of MMP-13; source: from proMMP-13 incubated with 1 mM APMA at 37 °C for at least 16 h
Consider B1, for which the Kd was over 50 nM in test [1]; over 200 nM in test [2]; 13 nM in test [4] (both partners purified); 15 nM in test [5] (both partners purified); 2.7 nM in test [6].
